Consider one substance from US20100029507.

For data set [1], the target named is E. coli malic enzyme-kemptide fusion protein (UniProt P26616).
The next data set addresses bovine serum albumin (UniProt P02769).

Sequence of E. coli malic enzyme-kemptide fusion protein (P26616 whole entry, looked up, the tested form may be a part): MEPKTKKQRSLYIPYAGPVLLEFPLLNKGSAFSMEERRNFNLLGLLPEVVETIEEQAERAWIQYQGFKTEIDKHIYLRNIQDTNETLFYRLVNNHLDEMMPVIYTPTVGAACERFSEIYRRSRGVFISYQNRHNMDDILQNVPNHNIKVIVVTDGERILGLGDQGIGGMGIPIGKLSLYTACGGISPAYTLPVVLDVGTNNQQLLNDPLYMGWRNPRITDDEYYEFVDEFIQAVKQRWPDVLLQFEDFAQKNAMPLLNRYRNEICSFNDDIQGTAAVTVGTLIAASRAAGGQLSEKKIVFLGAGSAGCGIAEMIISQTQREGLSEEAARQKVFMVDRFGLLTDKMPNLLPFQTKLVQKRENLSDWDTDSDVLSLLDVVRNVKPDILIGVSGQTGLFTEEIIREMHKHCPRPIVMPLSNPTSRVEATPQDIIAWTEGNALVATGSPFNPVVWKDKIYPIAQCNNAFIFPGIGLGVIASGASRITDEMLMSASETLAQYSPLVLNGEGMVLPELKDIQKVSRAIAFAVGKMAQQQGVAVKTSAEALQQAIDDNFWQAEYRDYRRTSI
Sequence of bovine serum albumin (P02769 25-607): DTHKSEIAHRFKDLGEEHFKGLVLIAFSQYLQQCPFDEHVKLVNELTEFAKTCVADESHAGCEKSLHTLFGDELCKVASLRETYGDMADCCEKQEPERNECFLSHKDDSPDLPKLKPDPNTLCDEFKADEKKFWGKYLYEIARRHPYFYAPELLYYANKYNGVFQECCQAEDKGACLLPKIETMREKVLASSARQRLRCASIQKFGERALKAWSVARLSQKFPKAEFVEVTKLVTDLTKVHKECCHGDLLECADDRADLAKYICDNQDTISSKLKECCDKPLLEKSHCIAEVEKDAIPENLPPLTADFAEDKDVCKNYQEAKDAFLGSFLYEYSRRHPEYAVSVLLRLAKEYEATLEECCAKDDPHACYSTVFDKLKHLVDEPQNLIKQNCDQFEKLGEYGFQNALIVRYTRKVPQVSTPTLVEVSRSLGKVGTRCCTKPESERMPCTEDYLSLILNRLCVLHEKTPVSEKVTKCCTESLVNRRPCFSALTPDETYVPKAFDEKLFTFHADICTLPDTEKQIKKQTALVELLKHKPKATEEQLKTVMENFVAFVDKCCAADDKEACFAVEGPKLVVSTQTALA

On to cAMP-dependent protein kinase, for which, in data set [1], the “phosphorylation with [gamma-32P]ATP on the biochip after different blocking solutions or none” value was “clear spots were observed not only when 1% BSA was treated but also when 1% glycine and 10% glycerol were treated”; the “phosphorylation with [gamma-32P]ATP on the biochip, X-ray film” value is recorded as “spot signals were clearly confirmed on the malic enzyme-kemptide fusion protein or kemptide spot”. Moreover, the “phosphorylation with [gamma-32P]ATP on the biochip, X-ray film” value with bovine serum albumin is given as “no signal was observed on No. 1 BSA spot selected as a negative control”. Besides, in the data set on kemptide, the “phosphorylation with [gamma-32P]ATP on the biochip after different blocking solutions or none” value is “clear spots were observed not only when 1% BSA was treated but also when 1% glycine and 10% glycerol were treated”; the “phosphorylation with [gamma-32P]ATP on the biochip, X-ray film” value is listed as “spot signals were clearly confirmed on the malic enzyme-kemptide fusion protein or kemptide spot”; the “phosphorylation with [gamma-32P]ATP on the biochip, X-ray film against image plate (IP)” value was “signals were clearly detected on IP film even with short sensitization time”.
